Data taken from PMC4097884.

What was measured:
[1] = biological target: FMRKA peptide, from an IA^b-random peptide baculovirus library peptide on I-Ab (mouse); assay: SPR, equilibrium
[2] = biological target: 3K peptide peptide on I-Ab (mouse); assay: SPR, equilibrium

- Kd [1]: 22 µM
- Kd [2]: 32 µM
Substance: J809.B5 αY31A
